Measured values: US20150351390A1, “COMPOSITIONS AND METHODS FOR AUXIN-ANALOG CONJUGATION” (PIONEER HI-BRED INTERNATIONAL, INC., priority 2012, published 2015)

B1: AIGH3-6: GH3 protein, accession XP_002866046 (protein, listed as Arabidopsis lyrata)
chain: MPEAPKIVALEVSDESLAEKNKNKLQFIEDVTTNADDVQRRVLEEILSRNADVEYLKRHGLDGRTDRETFKHVMPVVTYEDIQPEINRIANGDKSQILCSNPISEFLTSSGTSGGERKLMPTIEEELDRRSLLYSLLMPVMNQFVPGLDKGKGMYFLFIKSESKTPGGLPARPVLTSYYKSSHFKNRPFDPYNNYTSPNQTILCSDSYQSMYSQMLCGLCQHKEVLRVGAVFASGFIRAIKFLEKHWSELARDIRTGTLSSEITDLSVREAVGEILKPDPKLADFVESECRKTSWQGIITRLWPNTKYVDVIVTGTMSQYIPTLDYYSNGLPLVCTMYASSECYFGVNLRPLCKPSEVSYTLIPNMAYFEFLPVHRNSGVTSSISLPKALTEKEQQELVDLVDVKLGQEYELVVTTYAGLYRYRVGDVLSVAGFKNNAPQFSFICRKNVALSIDSDKTDEVELQNAVKNAVTHLVPFDASLSEYTSYAETSSIPGHYVLFWELCLNGNTPIPPSVFEDCCLTIEESLNSVYRQGRVSDKSIGPLEIKMVESGTFDKLMDYAISLGASINQYKTPRCVKFAPIIELLNSRVVDSYFSPKCPKWAPGHKQWGSN
B2: AIGH3-5: GH3 protein, accession XP_002869571 (protein, listed as Arabidopsis lyrata)
chain: MPEAPKKVSLEVFDLTLDQKNKQKLQLIEELTSNADQFQRRVLEEILSRNADVEYLRRHYLNGRTDRETFKNVMPVITYEDIQPEINRIANGDKSPILSSKPISEFLTSSGTSGGERKLMPTIEEELDRRSLLYSLLMPVMSQFVPGLENGKGMYFLFIKSESKTPGGLPARPVLTSYYKSSHFKERPYDPYTNYTSPNETILCSDSYQSMYSQMLCGLCQHQEVLRVGAVFASGFIRAIKFLEKHWTELVRDIRTGTLSSLITDPSVREAVSKILKPNSKLAEFVEFECKKSSWQGIITRLWPNTKYVDVIVTGTMSQYIPTLDYYSNGLPLVCTMYASSECYFGVNLRPLCKPSEVSYTLIPSMAYFEFLPVHRNNGVTNSINLPKALTEKEQQELVDLVDVKLGQEYELVVTTYAGLCRYRVGDLLRVTGFKNKAPQFSFICRKNVVLSIDADKTDEVELQNAVKNAVTYLVPFDASLSEYTSYADTSSIPGHYVLFWELCLDGNTPIPPSVFEDCCLTVEESFNTVYRQGRVSDKSIGPLEIKIVEPGTFDKLMDYAISLGASINQYKTPRCVKFAPIIELLNSRVVNSYLSPKCPKWVPGHKQWGSN
B3: AIGH3-3: GH3 protein, accession XP_002880486 (protein, listed as Arabidopsis lyrata)
chain: MTVDLPLRSPMNYSPSDKDVKALRFIEEMIRNVDFVQNKVIREILRRNSETEYLKRFGLKGFTDRKAFKTKVPVVTYDDLKPEIQRIANGDRSMILSSHPITEFLTSSGTSAGERKLMPTIEEDMDRRQLLYSLLMPVMNLYVPGLDKGKALYFLFVKTESKTPGGLPARPVLTSYYKSEQFKRRPYDPYNVYTSPNEAILCPDSSQSMYTQMLCGLLMRHEVLRLGAVFASGLLRAIGFLQTNWKELANDISTGTLSSRISDPAIKESMSKILTKPDQELADFITSVCGQDNNWEGIITKIWPNTKYLDVIVTGAMAQYIPMLEYYSGGLPMACTMYASSESYFGINLKPMCKPSEVSYTIMPNMAYFEFLPHEVPTGKSELVELADVEVGKEYELVITTYAGLNRYRVGDILQVTGFYNSAPQFKFVRRKNVLLSIESDKTDEAELQKAVENASVLLGEQGNRVIEYTSYAETKTIPGHYVIYWELLVKDQTNPPNDEVMARCCLEMEESLNSVYRQSRVADKSIGPLEIRVVKNGTFEELMDYAISRGASINQYKVPRCVSFTPIMELLDSRVVSTHFSPALPHWSPERRC
B4: AIGH3-2: GH3 protein, accession XP_002868993 (protein, listed as Arabidopsis lyrata)
chain: MAVDSPLQSRMVSPTTSEKDVKALKFIEEMTRNPDSVQEKVLGEILSRNSNTEYLKRFDINGAIDRNTFKNKVPVVTYEDLKPEIQRISNGDRSPILSSHPITEFLTSSGTSAGERKLMPTIEEDLDRRQLLYSLLMPVMNLYVPGLDKGKGLYFLFVKSESKTSGGLPARPVLTSYYKSDHFRRRPYDPYNVYTSPNEAILCSDSSQSMYAQMLCGLLMRHEVLRLGAVFASGLLRAISFLQNNWKELARDISTGTLSSRIFDPTIKNRMSKILIKPDQELAEFLIGVCSQENWEGIITKIWPNTKYLDVIVTGAMAQYIPTLEYYSGGLPMACTMYASSESYFGINLKPMCKPSEVSYTIMPNMAYFEFLPHNHDGDGATEASLDETSLVELADVEVGKEYELVITTYAGLYRYRVGDILRVTGFHNSAPQFKFIRRKNVLLSIESDKTDEAELQKAVENASRLFAEQGTRVIEYTSYAETKTIPGHYVIYWELLGRDQSNALPSEEVMAKCCLEMEESLNSVYRQSRVADKSIGPLEIRLVQNGTFEELMDYAISRGASINQYKVPRCVSFTPIMELLDSRVVSAHFSPSLPHWSPERRR
B5: AtGH3-1: GH3 protein, accession O82333 (protein, listed as Arabidopsis thaliana)
chain: MAVDSNLSSPLGPPACEKDAKALRFIEEMTRNADTVQENLLAEILARNADTEYLRRFNLCGATDRDTFKTKIPVITYEDLQPEIQRIADGDRSPILSAHPISEFLTSSGTSAGERKLMPTIKEELDRRQLLYSLLMPVMNLYVPGLDKGKGMYFLFVKSETKTPGGLPARPVLTSYYKSEHFRSRPYDPYNVYTSPNEAILCPDSFQSMYTQMLCGLLDRLSVLRVGAVFASGLLRAIRFLQLHWSRFAHDIELGCLDSEITDPSIRQCMSGILKPDPVLAEFIRRECKSDNWEKIITRIWPNTKYLDVIVTGAMAQYIPTLEYYSGGLPMACTMYASSECYFGLNLNPMSKPSEVSYTIMPNMAYFEFIPLGGTKAVELVDVNIGKEYELVVTTYAGLCRYRVGDILRVTGFHNSAPQFHFVRRKNVLLSIDSDKTDESELQKAVENASSILHEECGSRVAEYTSYADTSTIPGHYVLYWELLVRDGARQPSHETLTRCCLGMEESLNSVYRQSRVADNSVGPLEIRVVRNGTFEELMDYAISRGASINQYKVPRCVNFTPIVELLDSRVVSAHFSPSLPHWTPERRRR
B6: AIGH3-4: GH3 protein, accession XP_002886679 (protein, listed as Arabidopsis lyrata)
chain: MAVDSPLQSRIASPTTSEKDMKALMFIEEMTRNPDSVQEKVLGEILSRNSNTEYLKRFDLNGAVDRKTFKSKVPVVMYEDLKTEIQRISNGDRSPILSSHPINEFLTSSGTSSGERKLMPTIEEDIHRRQLLGSLLMPVMNLYLPGLDKGKGLYFLFVKSESKTSGGLPARPALTSYYKSDHFKTSDLQNDYTSPREAILCSDSSQSMYAQMLCGLLMRHEVLRLGAVFPSGLLRAISFLQNNWKELAQDISTGILSSKIFDPAVNNRMSKILNKPDEELAEFLIGVCSQENWEGIITKIWPNTKYLDVIITGAMAQYIPMLEYYSGGLPIASTIYASSESYFGINLNPMCKPSEVSYTIMPNMAYFEFLPHNHDGDGALDETSLVELADVEVGKEYELVITTYAGLYRYRVGDILCVTGFHNSAPQFKFIRRKNVLLSIESDKTDEADLQKAVDNASRLLAEQGTSVIEYTSYAETKTIPGHYVIYWELLGRDQSNALPSDEVMAKCCLEMEESLNSVYRQSRVSDKSIGPLEIRVVQNGTFDELMDYAISRGSSINQYKVPRCVSLTPILELLDSRVVSAHFSTSLPHWSPERRH

Key:
[1] = LC-MS assay of GH3 conjugation of IAA with Asp or Glu; format: biochemical; settings: for kcat (hrs−1) IAA-Asp: conjugation of IAA with Asp by recombinant GH3 protein, IAA-Asp product by LC-MS; for kcat (hrs−1) IAA-Glu: conjugation of IAA with Glu by recombinant GH3 protein, IAA-Glu product by LC-MS
Method in brief: (§1)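 Kinetic parameters come from Michaelis-Menten fits of initial velocities. Velocities reflect LC-MS quantification, against standards, of Asp or Glu conjugates formed by purified GH3 (44 to 164 μg/mL) with 5 mM ATP and MgCl2 at pH 8.0, 30° C.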

[2] = LC-MS assay of GH3 conjugation of 2,4-D with Asp or Glu; format: biochemical; settings: 5 mM 2,4-D substrate; for kcat (hrs−1) 2,4-D-Asp: conjugation of 2,4-D with Asp by recombinant GH3 protein, 2,4-D-Asp product by LC-MS; for kcat (hrs−1) 2,4-D-Glu: conjugation of 2,4-D with Glu by recombinant GH3 protein, 2,4-D-Glu product by LC-MS
Method in brief: as §1

Molecule | kcat (hrs−1) IAA-Asp [1] | kcat (hrs−1) IAA-Glu [1] | kcat (hrs−1) 2,4-D-Asp [2] | kcat (hrs−1) 2,4-D-Glu [2]
B1 | 413.293 h⁻¹ | 20.881 h⁻¹ | 1.300 h⁻¹ | 0.211 h⁻¹
B2 | 429.073 h⁻¹ | 24.704 h⁻¹ | 1.586 h⁻¹ | 0.421 h⁻¹
B3 | 3315.262 h⁻¹ | 71.865 h⁻¹ | 1.566 h⁻¹ | 0.172 h⁻¹
B4 | 583.500 h⁻¹ | 13.953 h⁻¹ | 1.903 h⁻¹ | 0.309 h⁻¹
B5 | 437.707 h⁻¹ | 19.230 h⁻¹ | 1.188 h⁻¹ | 0.136 h⁻¹
B6 | 3.013 h⁻¹ | 0.000 h⁻¹ | 0.040 h⁻¹ | 0.006 h⁻¹
